Columns and labels:
K63-linked diubiquitin = K63-linked diubiquitin (UniProt P0CG47); experiment: SEC
[1] = target: diubiquitin G76C linked via K63, conjugated to BODIPY TMR C5-maleimide (UniProt P0CG47); experiment: fluorescence polarisation

| stoichiometry N (MyUb per diubiquitin) (K63-linked diubiquitin) | fold reduction in binding affinity compared to the MyUb domain alone [1] [fold] | Substance |
| --- | --- | --- |
| 1 |  | MyUb (G1080-R1131) (from UniProt Q9UM54 1080-1131) (domain or fragment) |
|  | 4 | myosin VI 1050-1131 (from UniProt Q9UM54 1050-1131) (domain or fragment) |
